Publication PMC12120064

Assays:
Assay in all cases: CEACAM1 co-IP (PLA also mentioned)
Settings in all cases: reference: full-length 4L CEACAM1; sites Y493,Y520
filamin A (FLNA) = filamin A (FLNA) (UniProt P21333)
SHP-1 = SHP-1 (UniProt P29350)
SYK = SYK (UniProt P43405)

Measured: binding against the reference

CEACAM1 (CEACAM1-4L) (from UniProt P13688) Y493F/Y520F
weaker: all assays above
